We go through 91 sequences from the supplement of paper PMC9112550, “Optimization of the antimicrobial peptide Bac7 by deep mutational scanning” (BMC Biology, 2022).
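Note: peptides expressed intracellularly from a pBAD plasmid library in pooled LB shake-flask culture, induced with 0.3% L-arabinose, DNA abundance read by NGS, three biological replicates, DESeq2 with apeglm shrinkage.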

This data set has as its system Escherichia coli TOP10. In words: shrunken log2 fold change of peptide-encoding DNA abundance (4.5 h post-induction vs induction); higher = less antimicrobial activity (less host growth inhibition). The note with it: time post-induction: 4.5 h; library: site-saturation at positions 5, 18, 19, 20.
In the case of RRIRSRPPRLPRPRPRPAEWPRP, the “shrunken log2 fold change” value amounted to 1.02.

In the case of RRIRHRPPRLPRPRPRPLVYPRP, the “shrunken log2 fold change” value was -0.0877.

RRIRARPPRLPRPRPRPPLIPRP: the “shrunken log2 fold change” value was 0.299.

In the case of RRIRDRPPRLPRPRPRPEAQPRP, the “shrunken log2 fold change” value turned out to be 1.66.

As for RRIRLRPPRLPRPRPRPICKPRP, the “shrunken log2 fold change” value was -0.28.

RRIRRRPPRLPRPRPRPFQSPRP: the “shrunken log2 fold change” value amounted to 0.0629.

In the case of RRIRQRPPRLPRPRPRPVKLPRP, the “shrunken log2 fold change” value is -0.0467.

Consider RRIRVRPPRLPRPRPRPEPWPRP, for which the “shrunken log2 fold change” value was found to be 0.128.

For the sequence RRIRVRPPRLPRPRPRPQPRPRP, the “shrunken log2 fold change” value stood at 0.429.

For the sequence RRIRYRPPRLPRPRPRPPRQPRP, the “shrunken log2 fold change” value worked out at 0.0146.

As to RRIRARPPRLPRPRPRPDWTPRP, the “shrunken log2 fold change” value worked out at 0.0425.

For RRIRTRPPRLPRPRPRPFPHPRP, the “shrunken log2 fold change” value is -0.247.

For RRIRYRPPRLPRPRPRPWIVPRP, the “shrunken log2 fold change” value is -0.219.

In the case of RRIRHRPPRLPRPRPRPGFKPRP, the “shrunken log2 fold change” value is -0.206.

RRIRCRPPRLPRPRPRPAEGPRP: the “shrunken log2 fold change” value was 0.14.

For the sequence RRIRPRPPRLPRPRPRPDIFPRP, the “shrunken log2 fold change” value stood at 0.0196.

In the case of RRIRLRPPRLPRPRPRPKNPPRP, the “shrunken log2 fold change” value was -0.606.

In the case of RRIRNRPPRLPRPRPRPTSSPRP, the “shrunken log2 fold change” value amounted to 0.211.

Consider RRIRERPPRLPRPRPRPRDIPRP, for which the “shrunken log2 fold change” value was -0.0401.

For the sequence RRIRLRPPRLPRPRPRPWSNPRP, the “shrunken log2 fold change” value is -0.195.

Take RRIRQRPPRLPRPRPRPNCEPRP: the “shrunken log2 fold change” value amounted to 0.117.

With RRIRTRPPRLPRPRPRPEYTPRP, the “shrunken log2 fold change” value was -0.052.

RRIRVRPPRLPRPRPRPLTGPRP: the “shrunken log2 fold change” value is -0.396.

Turning to RRIRVRPPRLPRPRPRPLYGPRP, the “shrunken log2 fold change” value is -0.426.

As for RRIRPRPPRLPRPRPRPLCWPRP, the “shrunken log2 fold change” value worked out at 0.266.

RRIRKRPPRLPRPRPRPNEQPRP: the “shrunken log2 fold change” value is 0.11.

Turning to RRIRDRPPRLPRPRPRPICGPRP, the “shrunken log2 fold change” value worked out at 0.0876.

With RRIRIRPPRLPRPRPRPIAVPRP, the “shrunken log2 fold change” value is -0.0939.

In the case of RRIRGRPPRLPRPRPRPKNYPRP, the “shrunken log2 fold change” value came to 0.175.

Consider RRIRNRPPRLPRPRPRPEHYPRP, for which the “shrunken log2 fold change” value is -0.38.

Consider RRIRRRPPRLPRPRPRPMREPRP, for which the “shrunken log2 fold change” value is 0.0493.

Consider RRIRHRPPRLPRPRPRPSPIPRP, for which the “shrunken log2 fold change” value was -0.175.

For RRIRHRPPRLPRPRPRPMTDPRP, the “shrunken log2 fold change” value is -0.898.

As for RRIRDRPPRLPRPRPRPWIYPRP, the “shrunken log2 fold change” value is -0.304.

On to RRIRVRPPRLPRPRPRPAHSPRP, for which the “shrunken log2 fold change” value was 0.0902.

In the case of RRIRHRPPRLPRPRPRPLWTPRP, the “shrunken log2 fold change” value is -0.174.

As to RRIRYRPPRLPRPRPRPPNKPRP, the “shrunken log2 fold change” value was -0.585.

On to RRIRGRPPRLPRPRPRPRKCPRP, for which the “shrunken log2 fold change” value was determined as 0.666.

For the sequence RRIRARPPRLPRPRPRPWYFPRP, the “shrunken log2 fold change” value is -0.332.

Consider RRIRVRPPRLPRPRPRPFNCPRP, for which the “shrunken log2 fold change” value was -0.0327.

Regarding RRIRERPPRLPRPRPRPAGPPRP, the “shrunken log2 fold change” value is -0.0342.

With RRIRRRPPRLPRPRPRPYDIPRP, the “shrunken log2 fold change” value was -0.249.

RRIRWRPPRLPRPRPRPYETPRP: the “shrunken log2 fold change” value was -0.181.

Take RRIRGRPPRLPRPRPRPSKEPRP: the “shrunken log2 fold change” value came out at 0.289.

Turning to RRIRKRPPRLPRPRPRPEHNPRP, the “shrunken log2 fold change” value is 0.368.

For the sequence RRIRTRPPRLPRPRPRPTCMPRP, the “shrunken log2 fold change” value was -0.262.

Regarding RRIRERPPRLPRPRPRPRTRPRP, the “shrunken log2 fold change” value came to 0.12.

For RRIRARPPRLPRPRPRPINTPRP, the “shrunken log2 fold change” value was -0.631.

In the case of RRIRNRPPRLPRPRPRPSCIPRP, the “shrunken log2 fold change” value was -0.507.

As for RRIRDRPPRLPRPRPRPNRMPRP, the “shrunken log2 fold change” value is -0.196.

RRIRDRPPRLPRPRPRPMSQPRP: the “shrunken log2 fold change” value was -0.236.

RRIRKRPPRLPRPRPRPAAVPRP: the “shrunken log2 fold change” value was determined as 0.188.

With RRIRMRPPRLPRPRPRPTYLPRP, the “shrunken log2 fold change” value is -0.497.

Consider RRIRYRPPRLPRPRPRPPPQPRP, for which the “shrunken log2 fold change” value is 0.776.

In the case of RRIRCRPPRLPRPRPRPRVVPRP, the “shrunken log2 fold change” value is 0.247.

Take RRIRSRPPRLPRPRPRPPHYPRP: the “shrunken log2 fold change” value was 0.132.

RRIRVRPPRLPRPRPRPQSNPRP: the “shrunken log2 fold change” value was -0.394.

With RRIRFRPPRLPRPRPRPRNMPRP, the “shrunken log2 fold change” value is -0.127.

Regarding RRIRYRPPRLPRPRPRPYSTPRP, the “shrunken log2 fold change” value is -0.648.

Consider RRIRNRPPRLPRPRPRPVHIPRP, for which the “shrunken log2 fold change” value is -0.15.

RRIRNRPPRLPRPRPRPSLGPRP: the “shrunken log2 fold change” value was 0.0885.

Turning to RRIRFRPPRLPRPRPRPSVNPRP, the “shrunken log2 fold change” value was -0.388.

RRIRIRPPRLPRPRPRPPAEPRP: the “shrunken log2 fold change” value was 0.583.

For RRIRSRPPRLPRPRPRPHHMPRP, the “shrunken log2 fold change” value was -1.11.

For RRIRHRPPRLPRPRPRPQNLPRP, the “shrunken log2 fold change” value was -0.00783.

Consider RRIRFRPPRLPRPRPRPQHTPRP, for which the “shrunken log2 fold change” value was -0.164.

Regarding RRIRNRPPRLPRPRPRPHWHPRP, the “shrunken log2 fold change” value was -0.65.

Regarding RRIRGRPPRLPRPRPRPACVPRP, the “shrunken log2 fold change” value was 0.81.

For the sequence RRIRLRPPRLPRPRPRPHKRPRP, the “shrunken log2 fold change” value amounted to 0.0273.

In the case of RRIRYRPPRLPRPRPRPTTSPRP, the “shrunken log2 fold change” value is -0.382.

RRIRQRPPRLPRPRPRPDLGPRP: the “shrunken log2 fold change” value is 0.0039.

For the sequence RRIRARPPRLPRPRPRPNSMPRP, the “shrunken log2 fold change” value was -0.527.

Regarding RRIRARPPRLPRPRPRPVWRPRP, the “shrunken log2 fold change” value amounted to 0.873.

As for RRIRYRPPRLPRPRPRPPYQPRP, the “shrunken log2 fold change” value was -0.369.

For RRIRTRPPRLPRPRPRPINLPRP, the “shrunken log2 fold change” value is -0.156.

Take RRIRGRPPRLPRPRPRPLFVPRP: the “shrunken log2 fold change” value was determined as 0.203.

Take RRIRNRPPRLPRPRPRPMESPRP: the “shrunken log2 fold change” value was -0.0333.

In the case of RRIRVRPPRLPRPRPRPGEFPRP, the “shrunken log2 fold change” value was found to be 0.119.

Turning to RRIRGRPPRLPRPRPRPCHEPRP, the “shrunken log2 fold change” value was found to be 0.492.

On to RRIRPRPPRLPRPRPRPASEPRP, for which the “shrunken log2 fold change” value is 0.0613.

With RRIRYRPPRLPRPRPRPCPFPRP, the “shrunken log2 fold change” value is -0.0574.

As to RRIRARPPRLPRPRPRPSTEPRP, the “shrunken log2 fold change” value stood at 0.396.

Take RRIRWRPPRLPRPRPRPQYHPRP: the “shrunken log2 fold change” value was -0.505.

As for RRIRARPPRLPRPRPRPCCVPRP, the “shrunken log2 fold change” value came out at 0.559.

RRIRQRPPRLPRPRPRPLKKPRP: the “shrunken log2 fold change” value was -0.15.

As to RRIRRRPPRLPRPRPRPFGIPRP, the “shrunken log2 fold change” value was found to be 0.0306.

For RRIRARPPRLPRPRPRPCPWPRP, the “shrunken log2 fold change” value was -0.0222.

Turning to RRIRYRPPRLPRPRPRPAGFPRP, the “shrunken log2 fold change” value is -0.0806.

Turning to RRIRCRPPRLPRPRPRPKDEPRP, the “shrunken log2 fold change” value amounted to 0.393.

As to RRIRQRPPRLPRPRPRPGGWPRP, the “shrunken log2 fold change” value stood at 0.45.

In the case of RRIRQRPPRLPRPRPRPAQFPRP, the “shrunken log2 fold change” value was found to be 0.237.
